Test results as given in article PMC7929516, “Hallmarks of Alpha- and Betacoronavirus non-structural protein 7+8 complexes” (Science Advances, 2021).
Numbering of substitutions follows the chain as printed.

Assays:
[1] = target: SARS-CoV-2 nsp7-8-His6 precursor (SARS-CoV-2); test: native MS
[2] = target: PEDV nsp7-8-His6 precursor (PEDV (strain CV777))
[3] = target: HCoV-229E nsp7-8-His6 precursor (HCoV-229E); test: native MS
[4] = target: SARS-CoV nsp7-8-His6 precursor (SARS-CoV (strain Frankfurt-1)); test: native MS
native MS = target: the molecule itself; test: native MS

## SARS-CoV-2 nsp7-8-His6 precursor (domain or fragment)
[1]
  stoichiometry N: 2

## PEDV nsp7-8-His6 precursor (domain or fragment)
[2]
  stoichiometry N: 2

## HCoV-229E nsp7-8-His6 precursor (domain or fragment)
[3]
  stoichiometry N: 2

## SARS-CoV nsp7-8-His6 precursor (domain or fragment)
[4]
  stoichiometry N: 2

B1: HCoV-229E nsp7 (natural protein)
chain: SKLTDLKCTNVVLMGILSNMNIASNSKEWAYCVEMHNKINLCDDPETAQELLLALLAFFLSKHSDFGLGDLVDSYFENDSILQ
Native MS
  stoichiometry N: 2

B2: MERS-CoV nsp7 (natural protein)
chain: SKLTDLKCTSVVLLSVLQQLHLEANSRAWAFCVKCHNDILAATDPSEAFEKFVSLFATLMTFSGNVDLDALASDIFDTPSVLQ
Native MS
  stoichiometry N: 2

B3: PEDV nsp7 (natural protein)
chain: SKLTDIKCSNVVLLGCLSSMNVSANSTEWAYCVDLHNKINLCNDPEKAQEMLLALLAFFLSKNSAFGLDDLLESYFNDNSMLQ
Native MS
  stoichiometry N: 2

B4: FIPV nsp7 (natural protein)
chain: SKLTEMKCTNVVLLGLLSKMHVESNSKEWNYCVGLHNEINLCDDPDAVLEKLLALIAFFLSKHNTCDLSDLIESYFENTTILQ
notes: also called feline CoV nsp7
Native MS
  stoichiometry N: 2

B5: TGEV nsp7 (natural protein)
chain: B4 chain with D46E, A47I, D70E
Native MS
  stoichiometry N: 2
